Test results from the supplement of paper PMC10567573.

B1: ANKRD40 (parent)
chain: VRIQNPSLRENDFIEIELDRQELT

Variants of: B1
Assay: protein stability index of a GFP-peptide fusion (GPS, HEK-293T) (PSI 1-6); higher = more stable
Settings: c terminus: a fixed tail appended
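Also: lentivirally expressed fusions sorted by FACS into six bins by GFP to DsRed ratio, PSI derived from sequencing read proportions per bin multiplied by bin number.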

Protein stability index: each site, then its substitutions
F13: T 3.76; S 4.39; I 2.36; H 4.08; A 3.81; W 2.44; K 3.72; G 4.11; E 4.6; M 3.21; C 3.15; R 3.43; D 4.61; Y 2.42; P 4.53; L 3.42; V 3.41; Q 4.32; N 4.18
S7: M 2.01; K 2.81; F 1.45; Q 2.82; I 2.56; Y 2.16; H 2.13; C 2.33; P 3.72; L 2.09; T 3.04; N 2.79; E 2.8; V 2.81; W 2.2; A 2.76; G 2.26; D 2.91; R 2.39
E15: P 3.49; S 2.02; Y 2.04; K 2.47; W 1.97; L 2.25; H 2.94; R 2.13; T 2.27; F 1.82; D 2.95; C 1.87; A 2.38; V 1.89; G 3.02; Q 2.18; N 3.29; M 1.95; I 2.45
Q21: A 2.05; I 1.31; E 2.82; L 1.8; W 1.73; R 2.24; C 2.15; V 1.76; D 1.84; T 2.47; Y 2.32; P 2.46; F 1.77; S 2.08; H 2.12; G 2.32; M 2.01; N 2.99; K 2.24
E10: I 2; L 1.53; Y 1.51; N 2.15; H 2.38; Q 2.37; A 2.27; M 1.74; S 2.51; T 2.28; D 2.31; K 2.08; C 1.73; V 2.05; R 1.84; W 1.91; F 1.92; G 1.85; P 2.5
P6: W 1.77; V 2.02; Y 1.73; A 2.75; F 1.66; G 2.28; E 2.93; C 2.06; M 2.18; K 2.67; Q 2.6; R 2.69; T 2.02; H 2.65; N 2.67; S 2.16; D 2.38; L 2.17; I 1.52
L23: A 3.58; I 2.45; D 4.25; H 3.92; K 3.69; G 3.99; M 2.77; E 4.27; F 2.07; C 2.8; N 3.69
E22: W 1.82; C 1.68; K 2.28; Q 1.86; L 2.61; P 2.34; H 2.57; F 2.47; D 2.87; A 2.36; T 2.06; M 1.93; R 2.65; G 1.92; I 2.73; Y 2.37; S 2.1; V 2.1; N 2.34
R20: P 1.76; D 2.75; L 2.81; G 2.56; S 2.08; W 1.48; V 2.29; K 2.75; F 2.96; A 2.31; Q 2.57; H 2.32; M 2.92; C 2.12; I 2.82; T 1.78; Y 1.84; N 2.77; E 2.42
N11: T 2.47; G 2.32; Q 2.54; F 1.69; D 2.08; C 1.69; K 2.94; H 2.39; P 2.73; L 1.7; A 2.18; W 1.41; R 2.63; Y 1.71; M 1.99; I 1.94; E 1.79; S 2.58; V 1.97
L8: D 2.76; F 2.27; I 3.35; E 3.34; Q 3.11; T 3.42; K 2.96; A 2.77; C 2.36; Y 2.15; M 2.42; N 2.43; S 3.24; W 1.98; V 2.41; G 2.08; H 2.93; R 2.47; P 3.13
E17: D 2.7; Q 1.96; K 2.27; T 1.86; F 1.93; R 2.14; W 1.85; P 3.44; S 2.15; G 3.22; H 2.62; I 1.97; V 1.35; L 1.98; C 1.65; A 2.47; M 1.81; Y 2.22; N 2.66
D12: Q 2.1; Y 1.06; L 2.01; F 2.14; K 2.61; G 1.68; S 1.83; T 1.66; N 2.64; C 2.46; A 1.81; M 3.11; H 2.11; P 2.58; E 2.29; V 2.2; R 2.97; I 2.08; W 2.37
I14: M 3.34; S 4.42; K 4.47; W 2.49; N 4.85; Y 3.73; D 5.22; C 3.43; A 4; F 2.87; R 4.34; T 3.88; L 3; Q 4.31; E 4.92; P 4.27; V 3.1; G 3.87; H 4.66
R9: P 2.63; L 2.48; M 1.97; V 2.03; T 2.54; N 1.93; G 2.32; C 2.33; K 2.62; A 1.92; I 1.68; E 2.74; S 2.41; H 1.81; D 2.23; Y 1.78; F 1.51; Q 2.16; W 2.14
L18: M 3.3; V 2.85; G 4.38; F 2.12; C 3.61; W 1.82; Q 4.7; I 2.01; D 4.8; N 4.72; R 4.37; A 4.2; E 5.04; K 4.62; Y 3.03; H 4.48; S 4.81; P 4.35; T 4.51
D19: P 2.65; R 2.41; N 1.94; G 1.8; F 1.56; C 1.89; W 1.54; V 1.92; T 1.94; K 2.24; Q 2.42; M 1.65; S 1.92; Y 1.83; E 2.8; L 2.22; H 1.69; I 1.91; A 1.93
I16: Y 3.15; L 2.65; H 4.59; N 5.11; K 4.69; W 2.89; T 4.44; V 3.49; S 4.47; G 4.55; M 3.49; F 2.83; A 4.19; P 4.67; Q 4.68; D 5; C 4.09; E 4.8; R 4.75
